The record followed here is article PMC10339064.

This test addresses Peroxisome proliferator-activated receptor alpha (PPARα), wild type, FLAG-tagged (human) (UniProt Q07869).
UniProt Q07869, sequence (Q07869 whole entry): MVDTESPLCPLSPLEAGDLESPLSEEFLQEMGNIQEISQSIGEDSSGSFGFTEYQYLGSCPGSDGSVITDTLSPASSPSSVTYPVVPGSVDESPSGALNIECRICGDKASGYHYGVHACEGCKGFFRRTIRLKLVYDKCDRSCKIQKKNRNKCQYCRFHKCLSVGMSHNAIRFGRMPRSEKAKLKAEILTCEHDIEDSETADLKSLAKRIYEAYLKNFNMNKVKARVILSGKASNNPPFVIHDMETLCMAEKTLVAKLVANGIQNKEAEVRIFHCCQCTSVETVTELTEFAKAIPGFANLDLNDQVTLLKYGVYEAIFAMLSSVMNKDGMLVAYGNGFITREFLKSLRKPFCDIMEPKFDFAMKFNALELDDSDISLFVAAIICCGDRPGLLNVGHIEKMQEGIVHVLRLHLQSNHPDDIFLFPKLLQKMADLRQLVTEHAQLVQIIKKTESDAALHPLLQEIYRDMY

As for “C-terminal binding protein 2 (CtBP2), wild type, HA-tagged (from UniProt P56545 1-445) (natural protein)”, the PPRE-driven luciferase reporter in HEK293 cells activated by ectopic PPARα; reduction by expression of CtBP2 was 53%.
